# Results published in US12383572B2, “Administration of an anti-activin-a compound to a subject” (AMGEN INC., priority 2013, dated 2025).
# B1: recombinant activin-A: Recombinant activin-A was produced using mammalian expression system (Amgen Inc) (protein, UniProt P08476 311-426, looked up)
# Inhibin beta A chain: GLECDGKVNICCKKQFFVSFKDIGWNDWIIAPSGYHANYCEGECPSHIAGTSGSSLSFHSTVINHYRMRGHSPFANLKSCCVPTKLRPMSMLYYDDGQNIIKKDIQNMIVEECGCS
# Experiments:
# [1] = tested on: TOV-21G, MRC-5, CCD-Lu and THP-1 cell cultures; assay: VEGF and Ang-1 ELISA of cell culture medium after recombinant activin-A; assay type: cell-based, human; conditions: TOV21G, MRC-5, CCD-Lu and TPH-1 cells treated with activin-A
# Method: The serum VEGF levels in inh-KO mice were measured by using immunoassay kit (R & D Systems), and the levels of human VEGF and Ang-1 in cell line culture medium were quantified using ELISA kits purchased from Invitrogen (VEGF) and R & D Systems (Ang-1), by following the manufacturers' recommended protocols.
# [2] = tested on: TOV-21G, BAEC, MRC-5, CCD-Lu, U937 and THP-1 cultures; assay: Real-time RT-PCR of VEGF, Ang-1 and βA in cell cultures treated with recombinant activin-A; assay type: cell-based; conditions: BAEC
# Source text: ID NO: 291), [NT] ID NO: 292), and TaqMan probe [NT] ID NO: 293).
molecule,measurement,setting,value
B1,release of VEGF into the culture medium (ELISA),[1],increased the release of VEGF
same,Ang-1 mRNA (real-time PCR),[2]; MRC-5 and CCD-Lu cultures treated with recombinant activin-A,"also of Ang-1 mRNA in BAEC, MRC-5 and CCD-Lu cultures"
same,endogenous activin-A (βA) mRNA expression,"[2]; TOV21G, MRC-5, CCD-Lu, U937 and THP-1 cultures, recombinant activin-A added",markedly upregulated βA expression in all these cells
same,VEGF transcripts (real-time PCR),"[2]; TOV-21G, MRC-5 or CCD-Lu, U937 cultures treated with recombinant activin-A",marked increases in the levels of VEGF transcripts in all these cultures
